According to a protein production outcome set (Wang et al. 2014):

Experiment: label from the status in PepcDB records

Protein production, failed:
MRILLVEDDELIGELLVKSLTSQHYTVDFAKDGQEGWDFAELYTYDLILLDLILPKLDGISFCRQLRASGNQTPILLLTSQDTSITKVTGLDAGADDYVAKPFDFQELLARIRALLRRGGSALPPLLEWNNLRLDPSTCEVACDGKLLHLTPKEYGLLELFLRNSHRIFSCSALIDQLWSFEEPPTEDTVRSHIKGLRQKLKAAGVVEDPIDTVYGIGYRLKPVQPGREEELNTEKVVAAIANPVENEVRKVWEDVVEKIEQRVAVIEQASHKLLQNKVSEEILSKAKVEAHKLAGSLGMFGSDEGSQIAQEIESLLDNGKKLKASGGKHLGQVVEALHQELENLKSGYKTELSVVETKADDRPLVLVIDQDQELVRESRSQGSEAIAPGQLTDARVMIVDDDPQILTTLQTLLSAWGIKVYTLPHPQGFLAARLGNLAEIDTLTLVANRRKSTQELNHYLQWCHTHQQTLSFAVVKLDGLKQINYNYGHEIGDRVLSQLGELLRQMFHSQDVVGRWGGTEFILGMAGITKGEGVRRLGELLKTFRQIEFINTSNQSFHATLSAAVVEYPQDGDKLEVLYQAADIVLHQSKATGRNRVLSS
MRILSIHLKNIKSHRDTELTFSAGINVLSGPNGVGKSTVFEAIGYALFGVDARDFVSNVDRFLSIGTKKGEIAVAFCTDAGETWRVTRTVGTPAKWLLAREQGGAFEVEEHARIEETEARIAELLGLDNGRPLAEQFKLVIGPFQNEFLGPFVIKQPTKRQEAFDEILGIDAWRKTYKSTSSLLSAVQEKIKIIAVEIEAKEAQVAVLPEREDELAKIKTDAEALRKVLSSQADALRDVEKQLVELDDQEKGIAALQAEIQILVNRITDGEGKIKDQGQRVGEAEKAGGVLEQTRAGKEAFERAESRLAELVSKDKQRREVEKDVTRLENETQRLTQAVEHEQKEIEGEGRRLREEEDALAKARNELEPDRKVVDTAGRLPGLRDEINRVRSEKGLLEGRRIGLLEGQEKLGEGTCPFFKEPCRNVAGTTPKDVFTTRIAELDRKMQALTEALGKLSVEVADAEAAEKQLAALTVRSQELHKQTMGLVERRARNEKRVATLQTLSTQQIEAATRAKARRDDLQVFAGLDHEIERATAERGRFQADRDAYHAHEKDALDLDNRRQTLEKMLRLLDELQKQLIGKKEELIRLQETYKPGQHKEARDQKDRLVAQVASLGQQIENLEKDRKRLEDEIGKLKLLKDEIGRKQAERNSFEQKEKLVKFLRNQVFKNVSAQLSERFREEISLRADRIYRTIAEADEELVWSENYQIVLRDMTDGVVRERSDDQLSGGQTMSAVVALRLALLQTIGARIAFFDEPTSNLDASRRENLATAFRAIDVGREEVTEHWYDQLFLISHDVAFTEITDQMIQLGE
MRIQMATKSSKKYKGVYCDNKGKIFYQIDLGIDPVTGKRVQKKARKNQYGKTFETMKEAYDELVRIKYEFANKVHLENYNMTFENYMNTIYLRAYKQKVQSVTYKTALPHHKLFIQYFGSKPLKAITPRDCEAFRLHIIENYSENYAKNLWSRFKACMGYAERLGYISDMPCKALDNPRGKHPETPFWTYAEFQTFIKSFDLHDYEELQRFTAIWLYYMTGVRVSEGLSLCWEDIDFDKKFLKVHTTLEKDENGNWYRKDQTKTPAGERLIELDDITIEVLQVWRKNQFANQDTDFIISRFGDPFCKSTICRIIKRKAQQVGVPVITGKGLRHSHASYLINVLKKDILYVARRMGHADKSTTLNTYSHWFNALDKTVSEEITQNIKSAGLDSILCQNSCQTSN
MRIRLFAFCLLLGGCQSQLPPLPDWQSPEGRDDPQTGRIVELRSGVTLSPQQLVARLAAAPRVIVGEKHDNPDHHAVELWLAQALGEYRAQGSLLLEMLDPGQQPRVDAVRAQLGNGKPVANLEEALDWQKGWDWTQYGPLVSWAVAQPAPLLAANLQRSEIMRIYRERPPLPGTASRRDSVRLPLLAQIRESHCGMLPDDQLPAMLAVQQQRDRRMAERLRDAPRPAMLVAGSFHARRDLGVPVHLRDLGAEKGTQVLMLVEAGQAVTTREADYAWYTPAQPDKDYCAEMKKARLEHHHHHH
MRITHLGHSCILVEAAGQRILVDPGNLSRSWRGLTDLDAILVTHRHPDHVDPEHIGALVDANSGAVVRAEEGACHEIPALDADPVAPGDVLQIGEVRIEAVGGRHAVIHRDLEPIGNVGYLIGEGLGTILYHPGDELDETPRGVDVLACPAHAPWAAMKETVDFARSVGARHGFLIHEGLLNGRGWQLSFDRHQEMVP
MRITHLGHSCILVEAAGQRILVDPGNLSRSWRGLTDLDAILVTHRHPDHVDPEHIGALVDANSGAVVRAEEGACHEIPALDADPVAPGDVLQIGEVRIEAVGGRHAVIHRDLEPIGNVGYLIGEGLGTILYHPGDELDETPRGVDVLACPAHAPWAAMKETVDFARSVGARHGFLIHEGLLNGRGWQLSFDRHQEMVPTTFHDLRNGQPWEVPQDLEHHHHHH
MRKAYLMESIQPWIEKFIKQAQQQRSQSTKDYPTSYRNLRVKLSFGYGNFTSIPWFAFLGEGQEASNGIYPVILYYKDFDELVLAYGISDTNEPHAQWQFSSDIPKTIAEYFQATSGVYPKKYGQSYYACSQKVSQGIDYTRFASMLDNIINDYKLIFNSGKSVIPPMSKTESYCLEDALNDLFIPETTIETILKRLTIKKNIILQGPPGVGKTFVARRLAYLLTGEKAPQRVNMVQFHQSYSYEDFIQGYRPNGVGFRRKDGIFYNFCQQAKEQPEKKYIFIIDEINRANLSKVFGEVMMLMEHDKRGENWSVPLTYSENDEERFYVPENVYIIGLMNTADRSLAVVDYALRRRFSFIDIEPGFDTPQFRNFLLNKKAEPSFVESLCQKMNELNQEISKEATILGKGFRIGHSYFCCGLEDGTSPDTQWLNEIVMTDIAPLLEEYFFDDPYKQQKWTNKLLGDS
MRKIMREIAVYGKGGIGKSTLSANLSAALALAGRKVLQIGCDPKHDSTRLLTHGREMPTVLDYMRVTNPLDYRLEEVLAHGFSGVGCVEAGGPNPGVGCAGRGIISTFEFLDRFRLKERYDTVVYDVLGDVVCGGFAVPIRKEYADTIFIVTSGEFMALYAANNILRGVRNYDNEEKRIAGILYNRRNIEGEDDRVARFAGAVGLSVCAVIPRSDSFTRAERGKMTVMEQGSDKAIMSIFSGLAQALISGCALHEAKPLTDNELEAIVLGSISSTGGPLSGPDSLPASVTEEPSAAGPPPEIGLTDPNRYLSKNILRSEPLHGCAFNGAMSVGAQISDAVILAHSPKSCTHIMYQTISSAGRRTLFERGALLPVSLAPNLESTDMGEAEMIFGGMEKLEEKILELKARQPRAIVVVSACPAGIIGDDIGRTRRFSEPGLPVVTLKTDGNLAGDYLQGMLMAYTSLARQVIRKDVPTLPDTVNIVFEKFIVTNTNDNFQTIGSLLSRLGVRVNCRFLCETTFDSLETFCTAQLNLLAYKDYTGKLLEDFFTREYGSVFLDRAFPVGFAETEDWLRDVAAFFGRPAAAEGIIEEHKELYAREVEALKADLAGKRLMIITYNHELDWILKTALDVGIDIVKIGVFNFSQDEGFRTRLDAAFNVVENYDRGERDQDIAAYKPDILLTNYASSLADEPFVADTIPMCPDVGFHSGLVLARRWARLLKLNLKGEWRQDELLFRQYYAG
MRKINIFKGKHNPQRTAIDFFKYVGPGLLVTVGFIDPGNWASNVSAGSDYGYSLLWIVTLSTIMLIILQHNAAHLGIVTGDCLSEAVSKKFKPWLTNIILYSAIGAAISTAMAELLGGAIALNMLFRLPIKIGTLIMLSLVIWMLFSSSYKKLERWIIGFVSIIGLSFIFELLLVKVNWQVAAVSFVSPSFPKNSMPIIMSVLGAVVMPHNLFLHSEIIQSRQWNVEKEDVIKRQLRYEFLDTIISMIVGFAINSAMVLLAASTFFKMHVSVSELSQAQALLKPLLGGSASVVFALALLFSGIASTVTAGMAGGSIFAGIYKEPYDIEDSHTQIGVIITMVLAAVIIFFIKDPFKGLIYSQMILSIQLPITIFTQIYLTSSKKVMGKFSNSLLDRVLLGIIAVIVTALNIALLVSYF
